Laboratory results from publication PMC10925351 (bioRxiv, 2025).
Substitutions are numbered along the chain they refer to. Names and notes keep the numbering of the source.

T1: Clb2-pp mutant (R366A, R379A, K383A), 6xHis-tagged (S. cerevisiae, UniProt P24869 1-491, R366A | R379A | K383A)
T1 sequence: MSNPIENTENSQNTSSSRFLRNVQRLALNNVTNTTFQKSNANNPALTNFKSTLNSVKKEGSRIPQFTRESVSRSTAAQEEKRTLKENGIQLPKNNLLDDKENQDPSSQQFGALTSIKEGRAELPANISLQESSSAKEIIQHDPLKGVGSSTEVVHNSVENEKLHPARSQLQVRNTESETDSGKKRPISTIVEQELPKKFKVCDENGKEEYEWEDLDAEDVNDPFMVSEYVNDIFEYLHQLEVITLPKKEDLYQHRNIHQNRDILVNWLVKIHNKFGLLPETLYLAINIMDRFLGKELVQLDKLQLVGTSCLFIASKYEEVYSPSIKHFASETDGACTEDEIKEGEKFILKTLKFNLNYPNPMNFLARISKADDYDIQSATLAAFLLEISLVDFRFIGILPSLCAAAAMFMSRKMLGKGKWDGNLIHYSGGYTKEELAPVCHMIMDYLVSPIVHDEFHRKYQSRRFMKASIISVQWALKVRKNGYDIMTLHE

T2: Clb2 (wild-type), 6xHis-tagged (S. cerevisiae, UniProt P24869 1-491)
T2 sequence: T1 sequence with A366R, A379R, A383K

B1: Cdk1 (Cdc28), T169-phosphorylated, from a GST-TEV-Cdk1 fusion (enzyme)
chain: not shown
modifications: phosphothreonine at T169 (by Cak1)
B2: Cks1 (wild-type) (natural protein)
chain: MYHHYHAFQGRKLTDQERARVLEFQDSIHYSPRYSDDNYEYRHVMLPKAMLKVIPSDYFNSEVGTLRILTEDEWRGLGITQSLGWEHYECHAPEPHILLFKRPLNYEAELRAATAAAQQQQQQQQQQQQQQQQHQTQSISNDMQVPPQIS
B3: Cks1 mutant (R33E, S82E, R102A) (natural protein)
chain: B2 chain with R33E, S82E, R102A

Experiments:
Test in all cases: reconstitution of a complex by mixing purified proteins
[1] = molecular target: T1, Clb2-pp mutant (R366A, R379A, K383A), …
[2] = molecular target: T2, Clb2 (wild-type), 6xHis-tagged
[3] = molecular target: Clb2-Cdk1 complex (wild-type Clb2) (S. cerevisiae, UniProt P24869;P00546, phosphothreonine at T169 (by Cak1))
Chain of Clb2-Cdk1 complex (wild-type Clb2) (P00546 whole entry, one chain of several): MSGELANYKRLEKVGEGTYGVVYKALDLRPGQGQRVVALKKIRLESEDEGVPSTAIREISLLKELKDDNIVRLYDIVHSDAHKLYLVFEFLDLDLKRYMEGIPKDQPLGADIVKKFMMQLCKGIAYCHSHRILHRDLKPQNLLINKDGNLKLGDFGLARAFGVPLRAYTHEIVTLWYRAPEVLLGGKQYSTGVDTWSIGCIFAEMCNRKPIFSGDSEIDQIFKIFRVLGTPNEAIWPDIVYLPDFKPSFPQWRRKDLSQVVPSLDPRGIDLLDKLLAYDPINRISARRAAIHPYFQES

Row | Binder | binding result [1] | binding result [2] | binding result [3]
1 | B1 | binds | binds | 
2 | B2 |  |  | binds
3 | B3 |  |  | binds
